According to patent US10087225B2, “Formulation of MK2 inhibitor peptides” (MOERAE MATRIX, INC., priority 2015, dated 2018):

Key:
Assay in all cases: Kinase Profiling Assay
Type in all cases: biochemical
IKKα(h) = biological target: T1, IKKα(h) (Homo sapiens, UniProt O15111)
T1 sequence (O15111 1-745): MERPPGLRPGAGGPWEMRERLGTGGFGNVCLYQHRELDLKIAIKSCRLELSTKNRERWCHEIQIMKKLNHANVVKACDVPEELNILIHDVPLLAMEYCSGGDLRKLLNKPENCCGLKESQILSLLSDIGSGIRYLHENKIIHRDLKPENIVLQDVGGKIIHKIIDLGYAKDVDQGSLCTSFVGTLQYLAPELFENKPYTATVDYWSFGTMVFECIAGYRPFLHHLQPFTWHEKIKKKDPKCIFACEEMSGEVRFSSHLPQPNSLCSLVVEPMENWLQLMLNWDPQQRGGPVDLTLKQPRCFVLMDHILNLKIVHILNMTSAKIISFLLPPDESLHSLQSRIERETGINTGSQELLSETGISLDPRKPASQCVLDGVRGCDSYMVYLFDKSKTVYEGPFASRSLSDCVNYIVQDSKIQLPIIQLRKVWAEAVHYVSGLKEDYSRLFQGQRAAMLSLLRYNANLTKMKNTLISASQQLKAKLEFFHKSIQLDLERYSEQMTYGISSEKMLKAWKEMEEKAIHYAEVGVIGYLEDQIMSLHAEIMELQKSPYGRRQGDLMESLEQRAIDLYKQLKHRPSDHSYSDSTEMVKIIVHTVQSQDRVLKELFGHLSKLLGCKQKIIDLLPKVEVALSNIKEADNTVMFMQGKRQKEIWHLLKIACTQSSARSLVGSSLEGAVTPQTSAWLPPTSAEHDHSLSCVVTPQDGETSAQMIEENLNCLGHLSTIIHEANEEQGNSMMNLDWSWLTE

PrKX(h) = biological target: T2, PrKX(h) (Homo sapiens, UniProt P51817)
T2 sequence (P51817 1-358): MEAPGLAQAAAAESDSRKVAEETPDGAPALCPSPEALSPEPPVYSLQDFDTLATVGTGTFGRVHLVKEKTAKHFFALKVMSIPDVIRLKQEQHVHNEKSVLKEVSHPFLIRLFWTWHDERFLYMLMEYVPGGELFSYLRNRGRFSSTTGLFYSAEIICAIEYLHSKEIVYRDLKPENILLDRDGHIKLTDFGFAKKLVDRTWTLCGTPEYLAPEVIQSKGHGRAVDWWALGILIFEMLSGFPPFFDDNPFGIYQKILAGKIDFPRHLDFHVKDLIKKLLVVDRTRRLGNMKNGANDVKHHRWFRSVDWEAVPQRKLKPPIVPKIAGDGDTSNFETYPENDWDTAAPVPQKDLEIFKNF

GRK7(h) = biological target: T3, GRK7(h) (Homo sapiens, UniProt Q8WTQ7); conditions: 100 μM
T3 sequence (Q8WTQ7 1-553): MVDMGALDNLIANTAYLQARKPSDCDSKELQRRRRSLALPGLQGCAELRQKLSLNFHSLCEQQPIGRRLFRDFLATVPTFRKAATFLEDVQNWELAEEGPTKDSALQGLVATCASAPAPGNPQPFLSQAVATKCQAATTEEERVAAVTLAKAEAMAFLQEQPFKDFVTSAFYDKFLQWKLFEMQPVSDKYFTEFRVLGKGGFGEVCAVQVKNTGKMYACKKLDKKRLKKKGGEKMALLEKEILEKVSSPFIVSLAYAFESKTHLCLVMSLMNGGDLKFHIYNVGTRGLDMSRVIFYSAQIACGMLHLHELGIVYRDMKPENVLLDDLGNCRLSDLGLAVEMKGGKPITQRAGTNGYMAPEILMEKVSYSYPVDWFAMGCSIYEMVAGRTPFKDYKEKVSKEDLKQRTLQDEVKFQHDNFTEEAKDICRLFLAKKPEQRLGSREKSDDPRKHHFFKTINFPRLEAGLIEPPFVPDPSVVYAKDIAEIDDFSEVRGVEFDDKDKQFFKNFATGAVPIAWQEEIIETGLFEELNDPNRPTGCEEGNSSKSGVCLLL

LKB1(h) = biological target: T4, LKB1(h) (Homo sapiens, UniProt Q15831); conditions: 100 μM
T4 sequence (Q15831 1-433): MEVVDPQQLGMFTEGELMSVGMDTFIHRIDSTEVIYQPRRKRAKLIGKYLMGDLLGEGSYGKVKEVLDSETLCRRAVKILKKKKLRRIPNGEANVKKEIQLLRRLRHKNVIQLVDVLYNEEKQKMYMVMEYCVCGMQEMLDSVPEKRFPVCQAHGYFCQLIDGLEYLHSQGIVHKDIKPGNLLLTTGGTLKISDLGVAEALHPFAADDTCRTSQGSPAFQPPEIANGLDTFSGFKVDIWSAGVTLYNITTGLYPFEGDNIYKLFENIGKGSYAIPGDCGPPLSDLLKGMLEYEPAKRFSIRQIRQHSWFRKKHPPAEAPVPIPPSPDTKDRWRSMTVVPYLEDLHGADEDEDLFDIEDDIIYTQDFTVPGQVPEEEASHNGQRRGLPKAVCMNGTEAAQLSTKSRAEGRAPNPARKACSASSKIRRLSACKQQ
T4 sequence (Q7RTN6 1-431 partner): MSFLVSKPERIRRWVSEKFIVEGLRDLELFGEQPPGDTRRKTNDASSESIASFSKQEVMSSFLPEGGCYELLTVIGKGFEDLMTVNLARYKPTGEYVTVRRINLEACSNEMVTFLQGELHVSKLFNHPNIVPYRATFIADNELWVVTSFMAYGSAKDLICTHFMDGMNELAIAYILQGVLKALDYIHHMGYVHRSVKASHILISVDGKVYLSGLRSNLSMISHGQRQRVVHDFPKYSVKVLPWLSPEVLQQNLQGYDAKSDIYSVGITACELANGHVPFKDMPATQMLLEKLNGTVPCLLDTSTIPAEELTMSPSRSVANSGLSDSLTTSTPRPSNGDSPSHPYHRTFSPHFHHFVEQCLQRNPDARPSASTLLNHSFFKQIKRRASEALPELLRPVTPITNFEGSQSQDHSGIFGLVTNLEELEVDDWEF
T4 sequence (Q9Y376 1-341 partner): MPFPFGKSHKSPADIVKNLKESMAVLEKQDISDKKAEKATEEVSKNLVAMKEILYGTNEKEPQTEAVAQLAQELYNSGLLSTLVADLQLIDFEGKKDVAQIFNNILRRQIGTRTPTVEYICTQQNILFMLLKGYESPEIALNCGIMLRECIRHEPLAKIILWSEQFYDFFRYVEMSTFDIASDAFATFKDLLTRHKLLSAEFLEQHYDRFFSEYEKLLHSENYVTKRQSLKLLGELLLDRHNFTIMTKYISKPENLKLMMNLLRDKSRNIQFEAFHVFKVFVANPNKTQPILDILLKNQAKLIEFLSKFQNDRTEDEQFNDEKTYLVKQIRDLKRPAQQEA

Row | Substance | activity at 100 µM (IKKα(h)) [%] | activity at 100 µM (PrKX(h)) [%] | % activity (GRK7(h)) [%] | % activity (IKKα(h); 100 μM) [%] | % activity (LKB1(h)) [%] | % activity (PrKX(h); 100 μM) [%]
1 | H-YARAAARQARAKALARQLGVAA-OH [MMI-0100] | 108 | 84 | – | – | – | –
2 | HRRIKAWLKKIKALARQLGVAA (Mammalian) [MMI-0500] | – | – | 93 | 50 | 51 | 57
3 | YARAAARQARAKALNRQLGVA (Mammalian) [MMI-0200] | – | – | 124 | – | 99 | –
